# Source: US7078478B2, “Inhibition of the proliferation of cells of the multiple myeloma” (GSF-Forschungszentrum für Umwelt Gesundheit, GmbH, priority 1999, dated 2006)
# Tests used:
# [1] = target: deletion mutant Δ771-827 of Eg (mouse; human) (UniProt P14753); experiment: co-immunoprecipitation with anti-Hck, anti-His blot, Cos-7 lysates (FIG. 5A)
# [2] = target: DDM mutant (double point and deletion mutant) of Eg (mouse; human) (UniProt P14753); experiment: co-immunoprecipitation with anti-Hck, anti-His blot, Cos-7 lysates (FIG. 6)
# [3] = target: deletion mutant Δ771-827 of Eg (mouse; human) (UniProt P14753); experiment: as above
# [4] = target: deletion mutant Δ771-827 of Eg (mouse; human) (UniProt P14753); experiment: co-immunoprecipitation with anti-Hck, anti-His blot, Cos-7 lysates (FIG. 5B)
# [5] = tested on: IL-6 dependent murine cell line 7TD-1; experiment: IL-6 induced cell proliferation of 7TD-1 cells incubated with peptides, microscopic cell counting; format: cell-based; details: 7TD-1 stimulated with 40 pg IL-6, 100 μM peptide, 4 days, compared with untreated or unstimulated cells
# Experimental: Subfragments of the previously described 41 amino acid Hck binding domain of gp130 were used to narrow down the essential parts of this domain. The subfragments, which are shown in FIG. 12, were synthesized by solid phase synthesis, N-terminally coupled to myristate in order to render them membrane soluble, and diluted in DMSO. A MM-cell line was incubated with the different peptides and cell proliferation was measured.
# To determine the effects of the different peptides on IL-6 induced cell proliferation, the IL-6 dependent murine cell line 7TD-1 was stimulated with 40 pg of IL-6 and incubated with 100 μM of the different peptides. After 4 days, the cell proliferation was determined by microscopic cell counting.
decrease of Hck co-precipitation with gp130 [1],reduction of Hck binding to gp130 [2],reduction of Hck binding to gp130 [3],loss of gp130 co-precipitation with Hck [4],Substance,cell proliferation [5]
> 90%,> 90%,> 90%,90%,"Hck tyrosine kinase (wild type Hck, expressed from pcDNA3-Hck or pDpuro-Hck) (from UniProt P08631 2-526) (enzyme)",–
–,–,–,–,LLDSEERPEDLQLVD [compound 6],down regulation of cell proliferation to the basal level
–,–,–,–,TQPLLDSEERPEDLQLVD [compound 2],down regulation of cell proliferation to the basal level
